These results are taken from patent US7732563B2, “Cloning, sequencing and expression of a gene encoding an eukaryotic amino acid racemase, and diagnostic, therapeutic, and vaccination applications of parasite and viral mitogens” (priority 1999, dated 2010).

One series deals with Trypanosoma cruzi. The series can be described thus: rTcPA45 sub-mitogenic immunization followed by infective challenge, parasitemia. It counts as in vivo. On the procedure: FIG. 14B. rTcPA45 injection. 6 week old BALB/c mice were injected intraperitoneally (i.p.) with 10 ηg of rTcPA45 and then boosted i.p. one week later with 50 μg of rTcPA45. Mice were challenged 1 week after the boost with 10^4 infective forms of the parasite/mouse, and the parasitemia was scored during 30 days.
As with classical B cell mitogens, rTcPA45 mitogenicity is dose-dependent (FIG. 1). As for classical B cell mitogens, mouse specific immune responses directed to mitogenic rTcPA45 is indeed possible (Western blot FIG. 12) following a protocol of immunization which consisted of with 1 injection (i.p.) of a sub-mitogenic (10 ng/mouse) dose of the protein followed by an additional boost with a mitogenic dose of rTcPA45 (50 μg/mouse) one week later.
These additional results do support the claim that mitogenic moieties are potential targets for vaccination approaches against Trypanosoma cruzi infection. (See FIG. 14(b).)

Series [1] concerns spleen cells / Ig-producing B cells. The series can be described thus: Mitogenicity of rTcPA45 in vivo assessed by ELISPOT. Also noted: species or system mouse. The method, then:
BALB/c mice were injected or not with 50 μg of rTcPA45 (i.p.), and spleen cells assayed day 7 after injection. Results represent total numbers of spleen cells, total number of B cells producing IgM, IgG2a, or IgG2b isotypes, and total numbers of isotype-producing B cells specific of the protein.
Mice were injected or not with 50 μg of iTcPA45 (i.p.). […] Numbers of Ig-secreting cells (total or specific to rTcPA45) were determined by Elispot assay, as follows:
Flat bottomed 96 well ELISA plates, were coated with either goat anti-mouse Ig or with rTcPA45 and incubated at 4° C. overnight. Plates were blocked with PBS-gelatin, washed with PBS-Tween and with RPMI medium. 100 μl of different spleen cell concentrations per well (in RPMI containing 2% FCS) were incubated for 8 hours at 37° C., 5% CO2. A row in the plate containing serial dilutions of purified immunoglobulin (IgM, IgG2a, or IgG2b) was used as standard. After lysis of the cells with H20-Tween, plates were then washed with PBS-Tween and incubated with respective biotin-labeled antibodies directed to (IgM, IgG2b, or IgG2a isotypes), overnight at 4EC. After washing, plates were incubated for 45-60 minutes with avidin-alkaline phosphatase and further incubated with substrate (2-amino-2-methyl-propanol buffer containing BCIP) 2-4 hours, 37° C. (until the spots are “dark” blue). Spots correspond to immunoglobulin-producing B-cell (of a particular isotype) directed to the coated antigen (here: goat anti-mouse immunoglobulins or rTcPA45). Spots are then counted and numbers corrected to total number of spleen cells according to the dilution. (See Table I and FIG. 7.)

The target of a further series is T1, rTcPA45 proline racemase (Trypanosoma cruzi, UniProt Q4DA80).
T1 construct: made in house; host or cells: E. coli (pET28b(+))
It counts as biochemical. The method, then: To investigate the genomic organization and transcription of the Tc45 gene, Southern and Northern blot analyses were done. FIG. 4 depicts the results of characterization of rTcPA45 activities. FIG. 4, part a, is an 8% SDS-PAGE gel of rTcPA45 (Coomasie blue staining). Part b depicts the proliferative activity of total splenocytes (5×10^4 cells/well) in the presence of increasing concentrations of rTcPA45 (μg/ml). […] Reaction conditions were: 0.2 M Na-acetate/25 mM β-mercaptoethanol buffer, pH6, rTcPA45 (3 μg/ml), 30 min incubation at 37° C. in 500 μl. The reaction was stopped by incubating for 10 min at 80° C. […] Reactions were carried out for 30 min at 37° C. and stopped for 5 min at 80° C. All reagents and inhibitors were purchased from Sigma. The shift in optical rotation was measured in a Polarimeter 241 MC (Perkin Elmer).
3 μg of rTcPA45 was diluted in 500 μl of buffer (0.2M NaOAc, […] β-mercaptoethanol, pH6.0) containing different concentrations of the substrate (10-80 mM or L- or D-proline). (See FIG. 4c.) The reaction was incubated for 30-60 minutes at 37° C. in a water bath, followed by heat inactivation of the enzyme for 10 minutes at 80° C. Each sample is diluted to 1.5 ml with water and the mixture submitted to measurement of optical rotation using a polarimeter, at 365 nm. A sample without enzyme is used as a control. For optimal pH determination, buffer systems with NaOAc, phosphate, and Tris were used with pH ranging from 4.0-8.2. Curve of temperature was performed between 27° C. to 47° C.
The percent of racemization of different concentrations of L-proline, D-proline, L-hydroxy-proline and D-hydroxy-proline substrates was calculated by incubating a 500-μl mixture of 3 μg TcPA45 and 10-80 mM substrate in 0.2 M sodium acetate and 25 mM β-mercaptoethanol, pH 6, for 30 min at 37° C. The reaction was stopped by incubation for 10 min at 80° C. Water (1 ml) was then added, and the optical rotation was measured in polarimeter 241 MC (Perkin Elmer, Montignyle Bretonneux, France) at a wavelength of 365 nm, in a cell with a path length of 10 cm. The percent inhibition of racemization of 80 mM L-proline was determined in the presence of different concentrations of several specific and nonspecific inhibitors ranging in concentration from 6 mM to 100 mM. The percent racemization of 80 mM L-proline as a function of pH was determined using 0.2 M sodium acetate, potassium phosphate and Tris-HCl buffers containing 25 mM β-mercaptoethanol; reactions were incubated for 30 min at 37° C. as described above. All reagents and inhibitors were purchased from Sigma.

Where [2] appears, read: BALB/c mice, 50 μg/mouse i.p., 7 days after injection.
[3] abbreviates: pH 6, 3 μg rTcPA45, 30 min at 37° C.

B1: rTcPA45: recombinant T. cruzi polyclonal activator 45, B-cell mitogen and proline racemase, codons 30-423 with C-terminal 6×His tag, from E. coli (protein)
chain: RTGQEKLLFDQKYKIIKGEKKEKKKNQRANRREHQQKREIMRFKKSFTCIDMHTEGEAARIVTSGLPHIPGSNMAEKKAYLQENMDYLRRGIMLEPRGHDDMFGAFLFDPIEEGADLGMVFMDTGGYLNMCGHNSIAAVTAAVETGIVSVPAKATNVPVVLDTPAGLVRGTAHLQSGTESEVSNASIINVPSFLYQQDVVVVLPKPYGEVRVDIAFGGNFFAIVPAEQLGIDISVQNLSRLQEAGELLRTEINRSVKVQHPQLPHINTVDCVEIYGPPTNPEANYKNVVIFGNRQADRSPCGTGTSAKMATLYAKGQLRIGETFVYESILGSLFQGRVLGEERIPGVKVPVTKDAEEGMLVVTAEITGKAFIMGFNTMLFDPTDPFKNGFTLKQ
modifications: left off: small tags and cut ends
Regarding B1, in the series with Trypanosoma cruzi (BALB/c mice, 10 ng i.p. then boost 50 μg i.p. one week later, challenge 10^4 parasites/mouse), the parasitemia control is on record as 90-95%. Further, the “parasitemia control compared with DNA vaccination (85% decrease)” value in the series on Trypanosoma cruzi (sub-mitogenic doses of active rTcPA45 intraperitoneally 2 weeks before infective challenge) is recorded as “even higher levels of parasitemia control”. Also, in series [1] (50 μg rTcPA45 i.p., day 7), the “Ig-secreting B cells directed to TcPA45” value was “complete lack”; the “IgM secreting cells directed to the injected protein” value was “less than 0.5%”; the “increase in total numbers of Ig-secreting B cells (IgM, IgG2a, IgG2b isotypes)” value is reported as 3-6 fold; the “increase in total spleen cell numbers” value came to 2 fold. In series [1] (50 μg rTcPA45 in vivo, by day 4), the “increase in spleen cell numbers” value stood at 2 fold. Besides, in series [1] (50 μg rTcPA45 in vivo, day 4), the “rTcPA45-specific Ig-secreting B cells” value was “complete lack”. In series [1] (setting [2]), the “Total Number of Ig-producing B cells ANTI-rTc45MIT: IgG2a-B cells anti 45” value is reported as “none”, the “Total Number of Ig-producing B cells ANTI-rTc45MIT: IgG2b-B cells anti 45” value was “none”, the “Total Number of Ig-producing B cells ANTI-rTc45MIT: IgM-B cells anti 45” value was determined as 84 and the “Total Number of Ig-producing B cells: IgG2a-producing cells” value is 9866 ± 3000. In series [1] (setting [2]), the “Total Number of Ig-producing B cells: IgG2b-producing cells” value is given as 14633 ± 3287 and the “Total Number of Ig-producing B cells: IgM-producing cells” value amounted to 371666 ± 94495. In the series with rTcPA45 proline racemase (80 mM L-proline, buffers pH 4.0-8.2), the “pH of maximal proline racemase activity” value was 6. The “enzyme stability to heating” value in the series with rTcPA45 proline racemase (10 min heating at 80° C.) is “inactivated”. In the series with rTcPA45 proline racemase (setting [3]), the “racemisation of L- and D-proline substrates” value is listed as “racemises”; the “racemisation of L- or D-hydroxy-proline and other natural L-amino acids” value is on record as “not”. Also, the “optimal temperature for enzymatic activity” value in the series with rTcPA45 proline racemase (tested between 27° C. and 47° C.) was determined as 37 °C.
